Reference: IntAct's records for PubMed 16000308

B1: Melanoma-associated antigen D1 (Homo sapiens), Q9Y5V3 (parent)
chain: MAQKMDCGAGLLGFQAEASVEDSALLMQTLMEAIQISEAPPTNQATAAASPQSSQPPTANEMADIQVSAAAARPKSAFKVQNATTKGPNGVYDFSQAHNAKDVPNTQPKAAFKSQNATPKGPNAAYDFSQAATTGELAANKSEMAFKAQNATTKVGPNATYNFSQSLNANDLANSRPKTPFKAWNDTTKAPTADTQTQNVNQAKMATSQADIETDPGISEPDGATAQTSADGSQAQNLESRTIIRGKRTRKINNLNVEENSSGDQRRAPLAAGTWRSAPVPVTTQNPPGAPPNVLWQTPLAWQNPSGWQNQTARQTPPARQSPPARQTPPAWQNPVAWQNPVIWPNPVIWQNPVIWPNPIVWPGPVVWPNPLAWQNPPGWQTPPGWQTPPGWQGPPDWQGPPDWPLPPDWPLPPDWPLPTDWPLPPDWIPADWPIPPDWQNLRPSPNLRPSPNSRASQNPGAAQPRDVALLQERANKLVKYLMLKDYTKVPIKRSEMLRDIIREYTDVYPEIIERACFVLEKKFGIQLKEIDKEEHLYILISTPESLAGILGTTKDTPKLGLLLVILGVIFMNGNRASEAVLWEALRKMGLRPGVRHPLLGDLRKLLTYEFVKQKYLDYRRVPNSNPPEYEFLWGLRSYHETSKMKVLRFIAEVQKRDPRDWTAQFMEAADEALDALDAAAAEAEARAEARTRMGIGDEAVSGPWSWDDIEFELLTWDEEGDFGDPWSRIPFTFWARYHQNARSRFPQTFAGPIIGPGGTASANFAANFGAIGFFWVE
partner: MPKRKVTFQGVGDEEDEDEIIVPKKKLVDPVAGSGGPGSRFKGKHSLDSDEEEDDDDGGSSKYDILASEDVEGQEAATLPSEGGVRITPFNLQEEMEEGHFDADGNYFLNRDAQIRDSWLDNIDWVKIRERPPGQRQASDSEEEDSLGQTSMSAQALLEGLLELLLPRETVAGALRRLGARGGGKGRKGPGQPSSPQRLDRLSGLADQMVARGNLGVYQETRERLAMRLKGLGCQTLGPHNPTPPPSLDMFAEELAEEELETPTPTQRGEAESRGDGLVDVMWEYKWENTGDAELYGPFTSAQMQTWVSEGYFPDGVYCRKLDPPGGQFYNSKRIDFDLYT

Variants of: B1
Conditions: with cd2b2_human CD2BP2, O95400

Effect of a mutation on the interaction, by site and new letter:
P384: N disrupting interaction strength | M disrupting interaction strength | T disrupting interaction strength | D disrupting interaction strength | A disrupting interaction strength | I disrupting interaction strength | L disrupting interaction strength | K disrupting interaction strength | C disrupting interaction strength | G disrupting interaction strength | W disrupting interaction strength | R disrupting interaction strength | V disrupting interaction strength | E disrupting interaction strength | Q disrupting interaction strength | F disrupting interaction strength | H disrupting interaction strength | Y disrupting interaction strength | S disrupting interaction strength
W386: E disrupting interaction strength | A disrupting interaction strength | M decreasing interaction strength | G disrupting interaction strength | C disrupting interaction strength | V disrupting interaction strength | P decreasing interaction strength | S decreasing interaction strength | T disrupting interaction strength | I decreasing interaction strength | H disrupting interaction strength | D disrupting interaction strength | N disrupting interaction strength | K decreasing interaction strength
T388: D decreasing interaction strength | C decreasing interaction strength | E decreasing interaction strength
G385: F disrupting interaction strength | R decreasing interaction strength | L disrupting interaction strength | Q disrupting interaction strength | S disrupting interaction strength | P decreasing interaction strength | N disrupting interaction strength | M disrupting interaction strength | E disrupting interaction strength | K disrupting interaction strength | Y disrupting interaction strength | T disrupting interaction strength | I disrupting interaction strength | A disrupting interaction strength | C disrupting interaction strength | W disrupting interaction strength | H disrupting interaction strength | D disrupting interaction strength
T382: E disrupting interaction strength | M decreasing interaction strength | D disrupting interaction strength | L disrupting interaction strength | N decreasing interaction strength | C disrupting interaction strength
Q381: C decreasing interaction strength | E decreasing interaction strength | Y decreasing interaction strength | D decreasing interaction strength
P378: C decreasing interaction strength | E decreasing interaction strength | D decreasing interaction strength | W decreasing interaction strength | A decreasing interaction strength | M decreasing interaction strength | H decreasing interaction strength | G decreasing interaction strength
Q387: D disrupting interaction strength | Y disrupting interaction strength | A decreasing interaction strength | W disrupting interaction strength | C disrupting interaction strength | E disrupting interaction strength
W380: A decreasing interaction strength | D decreasing interaction strength | E disrupting interaction strength
G379: A decreasing interaction strength | E decreasing interaction strength | W decreasing interaction strength | C decreasing interaction strength | D decreasing interaction strength
P383: Q disrupting interaction strength | D disrupting interaction strength | E disrupting interaction strength | H disrupting interaction strength | R disrupting interaction strength | Y disrupting interaction strength | A disrupting interaction strength | C disrupting interaction strength | S disrupting interaction strength | K disrupting interaction strength | W disrupting interaction strength | V disrupting interaction strength | F disrupting interaction strength | I disrupting interaction strength | T disrupting interaction strength | N disrupting interaction strength | L disrupting interaction strength | M disrupting interaction strength | G disrupting interaction strength
